B1: Centrosomal protein of 68 kDa (Homo sapiens), Q76N32 (parent)
chain: MALGEEKAEAEASEDTKAQSYGRGSCRERELDIPGPMSGEQPPRLEAEGGLISPVWGAEGIPAPTCWIGTDPGGPSRAHQPQASDANREPVAERSEPALSGLPPATMGSGDLLLSGESQVEKTKLSSSEEFPQTLSLPRTTTICSGHDADTEDDPSLADLPQALDLSQQPHSSGLSCLSQWKSVLSPGSAAQPSSCSISASSTGSSLQGHQERAEPRGGSLAKVSSSLEPVVPQEPSSVVGLGPRPQWSPQPVFSGGDASGLGRRRLSFQAEYWACVLPDSLPPSPDRHSPLWNPNKEYEDLLDYTYPLRPGPQLPKHLDSRVPADPVLQDSGVDLDSFSVSPASTLKSPTNVSPNCPPAEATALPFSGPREPSLKQWPSRVPQKQGGMGLASWSQLASTPRAPGSRDARWERREPALRGAKDRLTIGKHLDMGSPQLRTRDRGWPSPRPEREKRTSQSARRPTCTESRWKSEEEVESDDEYLALPARLTQVSSLVSYLGSISTLVTLPTGDIKGQSPLEVSDSDGPASFPSSSSQSQLPPGAALQGSGDPEGQNPCFLRSFVRAHDSAGEGSLGSSQALGVSSGLLKTRPSLPARLDRWPFSDPDVEGQLPRKGGEQGKESLVQCVKTFCCQLEELICWLYNVADVTDHGTAARSNLTSLKSSLQLYRQFKKDIDEHQSLTESVLQKGEILLQCLLENTPVLEDVLGRIAKQSGELESHADRLYDSILASLDMLAGCTLIPDKKPMAAMEHPCEGV

In this experiment the parent is B1. The note with it: with fbw1a_human BTRC.
As for D337A, the “effect of a mutation on the interaction” value is “decreasing interaction strength”.

On to S332A, for which the “effect of a mutation on the interaction” value is recorded as “disrupting interaction strength”.

Consider S332A;D337A, for which the “effect of a mutation on the interaction” value is on record as “disrupting interaction strength”.
